Experimental data as given in US20250170255A1 (Daiichi Sankyo, published 2025).
Each block holds one binder with its values, some of them ahead of it.

How the values were obtained:
[1] = biological target: T1, biotinylated human TROP2 antigen (human, UniProt P09758 27-274, C-terminal Avi tag sequence biotinylated); test: ELISA, immobilised biotinylated human TROP2 antigen, anti-FLAG-HRP detection; without MMP1
T1 construct: extracellular domain
T1 sequence (looked up): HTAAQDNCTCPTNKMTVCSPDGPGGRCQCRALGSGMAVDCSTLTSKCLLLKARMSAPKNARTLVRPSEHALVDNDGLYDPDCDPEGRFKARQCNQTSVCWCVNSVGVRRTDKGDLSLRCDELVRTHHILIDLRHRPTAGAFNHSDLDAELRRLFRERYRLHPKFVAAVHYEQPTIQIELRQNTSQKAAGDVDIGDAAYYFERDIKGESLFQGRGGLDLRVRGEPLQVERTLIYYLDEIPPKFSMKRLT
Description: (§1) NeutrAvidin (Thermo Fisher Scientific) diluted to 1 μg/ml with PBS was added at 50 μl/well to a 96-well Maxi-sorp plate (Black, Nunc) and immobilized at 4° C. overnight. The plate was washed with PBS containing 0.05% (w/v) Tween-20 (BioRad) (ELISA buffer) and then blocked with Blocker Casein (Thermo Fisher Scientific). The plate was washed with ELISA buffer, the biotinylated human TROP2 antigen (Accession Number: P09758; the extracellular domain was purified by the method known to a person skilled in the art and the C-terminal Avi tag sequence was then biotinylated) diluted to 1 μg/ml with PBS was added at 50 μl/well, and the resultant was then agitated for 30 minutes at room temperature. […] The plate was washed with ELISA buffer, the SuperSignal Pico ELISA chemiluminescent substrate (Thermo Fisher Scientific) was added, and chemiluminescence 10 minutes thereafter was then assayed using a plate reader.
(§2) The resultant was then added to the plate comprising the human TROP2 antigen immobilized thereon at 50 μl/well. The bound scFv was detected using the HRP-labeled anti-FLAG antibody (Sigma-Aldrich) diluted to 5,000-fold with ELISA buffer.

[2] = biological target: T1, biotinylated human TROP2 antigen; test: ELISA, immobilised biotinylated human TROP2 antigen, anti-FLAG-HRP detection; after MMP1 pre-treatment
Description: as §1, §2

[3] = biological target: T1, biotinylated human TROP2 antigen; test: ELISA, immobilised biotinylated human TROP2 antigen, chemiluminescence
Description: (§3) NeutrAvidin (Thermo Fisher Scientific) diluted to 1 μg/ml with PBS was added at 50 μl/well to a 96-well Maxi-sorp plate (Black, Nunc) and immobilized at 4° C. overnight. The plate was washed with PBS containing 0.05% (w/v) Tween-20 (BioRad) (ELISA buffer) and then blocked with Blocker Casein (Thermo Fisher Scientific). The plate was washed with ELISA buffer, the biotinylated human TROP2 antigen (Accession Number: P09758; the extracellular domain was purified by the method known to a person skilled in the art and the C-terminal Avi tag sequence was then biotinylated) diluted to 1 μg/ml with PBS was added at 50 μl/well, and the resultant was then agitated for 30 minutes at room temperature. […] The plate was washed with ELISA buffer, 50 μl of the horseradish peroxidase (HRP)-labeled anti-human IgG antibody (Jackson Immuno Research Laboratories) diluted to 2,500-fold with ELISA buffer was added, and the resultant was then agitated for 30 minutes at room temperature. The plate was washed with ELISA buffer, the SuperSignal Pico ELISA chemiluminescent substrate (Thermo Fisher Scientific) was added, and chemiluminescence 10 minutes thereafter was then assayed using a plate reader.

[4] = biological target: T1, biotinylated human TROP2 antigen; test: ELISA, immobilised biotinylated human TROP2 antigen, chemiluminescence; without MMP1
Description: as §3

[5] = biological target: T1, biotinylated human TROP2 antigen; test: ELISA, immobilised biotinylated human TROP2 antigen, chemiluminescence; after MMP1 pre-treatment
Description: as §3

[6] = biological target: T1, biotinylated human TROP2 antigen; test: ELISA pH 7.5 against pH 5.5
[7] = biological target: T1, biotinylated human TROP2 antigen; test: ELISA with and without MMP1
[8] = biological target: T1, biotinylated human TROP2 antigen; test: ELISA, immobilised biotinylated human TROP2 antigen, chemiluminescence; pH 5.5
[9] = biological target: T1, biotinylated human TROP2 antigen; test: ELISA, immobilised biotinylated human TROP2 antigen, chemiluminescence; pH 7.5
[10] = biological target: T1, biotinylated human TROP2 antigen; test: ELISA, immobilised biotinylated human TROP2 antigen, chemiluminescence; after MMP1 pre-treatment (mask linker cleaved)
[11] = biological target: T1, biotinylated human TROP2 antigen; test: ELISA, immobilised biotinylated human TROP2 antigen, chemiluminescence; pH 5.5; remark: listed apart in the source
Description: (§4) The plate was washed with PBS containing 0.05% (w/v) Tween-20 (BioRad) (ELISA buffer) and then blocked with Blocker Casein (Thermo Fisher Scientific). The plate was washed with ELISA buffer, the biotinylated human TROP2 antigen (Accession Number: P09758; the extracellular domain was purified by the method known to a person skilled in the art and the C-terminal Avi tag sequence was then biotinylated) diluted to 1 μg/ml with PBS was added at 50 μl/well, and the resultant was then agitated for 30 minutes at room temperature. […] The plate was washed with ELISA buffer, 50 μl of the horseradish peroxidase (HRP)-labeled anti-human IgG antibody (Jackson Immuno Research Laboratories) diluted to 2,500-fold with ELISA buffer was added, and the resultant was then agitated for 30 minutes at room temperature. The plate was washed with ELISA buffer, the SuperSignal Pico ELISA chemiluminescent substrate (Thermo Fisher Scientific) was added, and chemiluminescence 10 minutes thereafter was then assayed using a plate reader. […]

[12] = biological target: T1, biotinylated human TROP2 antigen; test: ELISA, immobilised biotinylated human TROP2 antigen, chemiluminescence; pH 7.5; remark: listed apart in the source
Description: as §4

[13] = biological target: T1, biotinylated human TROP2 antigen; test: ELISA, immobilised biotinylated human TROP2 antigen, chemiluminescence; pH 5.5; remark: listed apart in the source
Description: as §4

[14] = biological target: T1, biotinylated human TROP2 antigen; test: ELISA, immobilised biotinylated human TROP2 antigen, chemiluminescence; pH 7.5; remark: listed apart in the source
[15] = biological target: T1, biotinylated human TROP2 antigen; test: ELISA, immobilised biotinylated human TROP2 antigen, chemiluminescence; pH 5.5; remark: listed apart in the source
[16] = biological target: T1, biotinylated human TROP2 antigen; test: ELISA, immobilised biotinylated human TROP2 antigen, chemiluminescence; pH 6.0
[17] = biological target: T1, biotinylated human TROP2 antigen; test: ELISA, immobilised biotinylated human TROP2 antigen, chemiluminescence; pH 7.5; remark: listed apart in the source
[18] = biological target: T1, biotinylated human TROP2 antigen; test: as above; remark: listed apart in the source
Description: as §4

[19] = biological target: T1, biotinylated human TROP2 antigen; test: ELISA, immobilised biotinylated human TROP2 antigen, chemiluminescence; pH 6.5
[20] = biological target: T1, biotinylated human TROP2 antigen; test: ELISA, immobilised biotinylated human TROP2 antigen, chemiluminescence; pH 7.5; remark: listed apart in the source
[21] = biological target: T1, biotinylated human TROP2 antigen; test: ELISA, immobilised biotinylated human TROP2 antigen, chemiluminescence; pH 5.5; remark: listed apart in the source
Description: as §4

[22] = biological target: T1, biotinylated human TROP2 antigen; test: ELISA, immobilised biotinylated human TROP2 antigen, chemiluminescence; pH 7.5; remark: listed apart in the source
Description: as §4

[23] = biological target: T1, biotinylated human TROP2 antigen; test: ELISA, immobilised biotinylated human TROP2 antigen, chemiluminescence; pH 5.5; remark: listed apart in the source
[24] = biological target: T1, biotinylated human TROP2 antigen; test: ELISA, immobilised biotinylated human TROP2 antigen, chemiluminescence; pH 7.5; remark: listed apart in the source
[25] = biological target: T1, biotinylated human TROP2 antigen; test: ELISA, immobilised biotinylated human TROP2 antigen, chemiluminescence; pH 5.5; remark: listed apart in the source
[26] = biological target: T1, biotinylated human TROP2 antigen; test: ELISA, immobilised biotinylated human TROP2 antigen, chemiluminescence; pH 7.5; remark: listed apart in the source
Description: as §4

[27] = biological target: T1, biotinylated human TROP2 antigen; test: ELISA, immobilised biotinylated human TROP2 antigen, chemiluminescence; without MMP1; remark: listed apart in the source
Description: as §3

[28] = biological target: T1, biotinylated human TROP2 antigen; test: ELISA, immobilised biotinylated human TROP2 antigen, chemiluminescence; after MMP1 pre-treatment (mask linker cleaved); remark: listed apart in the source
Description: as §3

[29] = biological target: T1, biotinylated human TROP2 antigen; test: ELISA, immobilised biotinylated human TROP2 antigen, anti-FLAG-HRP detection; without MMP1; remark: listed apart in the source
Description: as §1, §2

[30] = biological target: T1, biotinylated human TROP2 antigen; test: ELISA, immobilised biotinylated human TROP2 antigen, anti-FLAG-HRP detection; after MMP1 pre-treatment; remark: listed apart in the source
Description: as §1, §2

EC50 (read off the curve) [1]: ~3 nM | EC50 (read off the curve) [2]: ~3 nM
B1: HT1-11-scFv-LH (scFv)
scFv: ADVNSDIQMTQSPSSLSASVGDRVTITCKASQDVSTAVAWYQQKPGKAPKLLIYSASYRYTGVPSRFSGSGSGTDFTLTISSLQPEDFAVYYCQQHYITPLTFGQGTKLEIKRGGGGSGGGGSGGGGSQVQLVQSGAEVKKPGASVKVSCKASGYTFTTAGMQWVRQAPGQGLEWMGWINTHSGVPKYAEDFKGRVTISADTSTSTAYLQLSSLKSEDTAVYYCARSGFGSSYWYFDVWGQGTLVTVSSGAPSGDYKDDDDKGAAAHHHHHH
notes: Unmasked scFv (VL-VH) expressed in E. coli; Full-length entry

EC50 (read off the curve) [3]: ~0.6 nM | EC50 (read off the curve) [4]: ~0.5 nM | EC50 (read off the curve) [5]: ~0.5 nM
B2: anti-TROP2 antibody HT1-11 (antibody)
heavy: not shown
light: DIQMTQSPSSLSASVGDRVTITCKASQDVSTAVAWYQQKPGKAPKLLIYSASYRYTGVPSRFSGSGSGTDFTLTISSLQPEDFAVYYCQQHYITPLTFGQGTKLEIKRTVAAPSVFIFPPSDEQLKSGTASVVCLLNNFYPREAKVQWKVDNALQSGNSQESVTEQDSKDSTYSLSSTLTLSKADYEKHKVYACEVTHQGLSSPVTKSFNRGEC
notes: Known antibody of WO 2015/098099; Full-length entries

EC50 ratio (neutral pH conditions/acidic pH conditions) [6]: 28.1 | EC50 ratio (without the addition of MMP1/with the addition of MMP1) [7]: 48.4 | EC50 (read off the curve) [8]: ~1 nM | EC50 (read off the curve) [9]: ~30 nM | EC50 (read off the curve) [10]: ~0.6 nM
B3: anti-TROP2 masked antibody MHT1811 (antibody)
heavy: not shown
light: B2 light
notes: Full-length entries

EC50 (read off the curve) [11]: ~2 nM | EC50 (read off the curve) [12]: ~50 nM | EC50 (read off the curve) [13]: ~1 nM | EC50 (read off the curve) [14]: ~30 nM | EC50 (read off the curve) [15]: ~1 nM | EC50 (read off the curve) [16]: ~4 nM | EC50 (read off the curve) [17]: ~20 nM
B4: anti-TROP2 masked antibody MHT1808 (antibody)
heavy: not shown
light: B2 light
notes: His cluster linker; Full-length entries

EC50 ratio (neutral pH conditions/acidic pH conditions) [6]: 38.8 | EC50 (read off the curve) [18]: ~200 nM | EC50 (read off the curve) [19]: ~50 nM | EC50 (read off the curve) [20]: ~200 nM
B5: anti-TROP2 masked antibody MHT1806 (antibody, human IgG1, kappa)
heavy: not shown
light: B2 light

EC50 ratio (neutral pH conditions/acidic pH conditions) [6]: 11.4 | EC50 (read off the curve) [21]: ~5 nM | EC50 (read off the curve) [22]: ~60 nM
B6: anti-TROP2 masked antibody MHT1809 (antibody)
heavy: not shown
light: B2 light
notes: as for B4

EC50 ratio (neutral pH conditions/acidic pH conditions) [6]: 7.8 | EC50 (read off the curve) [23]: ~7 nM | EC50 (read off the curve) [24]: ~60 nM
B7: anti-TROP2 masked antibody MHT1810 (antibody)
heavy: not shown
light: B2 light
notes: His at every other position in the linker; Full-length entries; also called HMT1810

EC50 ratio (neutral pH conditions/acidic pH conditions) [6]: 3.9 | EC50 (read off the curve) [25]: ~30 nM | EC50 (read off the curve) [26]: ~100 nM
B8: anti-TROP2 masked antibody MHT1803 (antibody)
heavy: not shown
light: B2 light
notes: as for B4

EC50 ratio of binding intensity (without MMP1 / with MMP1) [7]: 104 | EC50 (read off the curve) [27]: ~30 nM | EC50 (read off the curve) [28]: ~0.3 nM
B9: anti-TROP2 masked antibody MHT1007 (antibody)
heavy: not shown
light: B2 light
notes: IgG-type; MHT1001 mimotope peptide and MMP cleavable linker fused to the heavy chain; Full-length entries

EC50 (read off the curve) [29]: ~5 nM | EC50 (read off the curve) [30]: ~5 nM
B10: HT1-11-scFv-HL (scFv)
scFv: ADVNSQVQLVQSGAEVKKPGASVKVSCKASGYTFTTAGMQWVRQAPGQGLEWMGWINTHSGVPKYAEDFKGRVTISADTSTSTAYLQLSSLKSEDTAVYYCARSGFGSSYWYFDVWGQGTLVTVSSGGGGSGGGGSGGGGSDIQMTQSPSSLSASVGDRVTITCKASQDVSTAVAWYQQKPGKAPKLLIYSASYRYTGVPSRFSGSGSGTDFTLTISSLQPEDFAVYYCQQHYITPLTFGQGTKLEIKRGAPSGDYKDDDDKGAAAHHHHHH
notes: Unmasked scFv (VH-VL) expressed in E. coli, purified by Ni Sepharose; Full-length entry
